Reference: PMC8406304, “Inhibiting Type VI Secretion System Activity with a Biomimetic Peptide Designed To Target the Baseplate Wedge Complex” (mBio, 2021)

Experiments:
[1] = biological target: TssF-Strep (EAEC) (enteroaggregative Escherichia coli (EAEC) 17-2); test: pull-down; soluble extracts of E. coli BL21(DE3) producing the TssKFGE wedge complex with TssG wild type or foot variants; TssF-Strep used to pull down TssG by affinity purification; level of copurified TssG quantified
[2] = test system: TssK-TssFGE (TssKFGE wedge complex); test: Biolayer interferometry (BLI), TssFGE binding to biotinylated TssK; type: biochemical, enteroaggregative Escherichia coli (EAEC); conditions: BLI, 47 μM TssFGE lysate, TssK preincubated with 1 mM peptide, kinetic buffer pH 7.3; mean ± SD of three independent assays
Protocol: Streptavidin-tagged TssK was purified as described above. The TssK trimer was further polished by size exclusion chromatography using a Superose 6 10/300 GL (GE Healthcare) in 50 mM HEPES (pH 7.0), 150 mM NaCl at 0.25 ml/min. For biolayer interferometry (BLI) experiments, we used high-precision Strep (SAX) biosensors from Forté Bio (number 18-5117) on the BLItz machine (Forté Bio). The trimeric ligand TssK was biotinylated using equimolar N-hydroxysuccinimide (NHS)–polyethylene glycol 4 (PEG4)–biotin (Pierce EZ-Link; 21330) in 50 mM HEPES (pH 7.0), NaCl 150 mM for 1 h at room temperature before buffer exchange in CentriPure P2 (Generon; IRL) columns against 50 mM HEPES (pH 7.0), NaCl 150 mM to remove the excess biotin. BL21(DE3) cells were used to express the interacting analytes TssG-TssF-TssE. In addition, cells containing an empty plasmid were used as a control. Cells were broken as described above, and the clarified supernatants after centrifugation for 30 min at 20,000 × g contained the control and TssFGE lysate. Streptavidin biosensors were hydrated for 10 min in HEPES buffer before binding of the biotinylated TssK. Biotinylated TssK was loaded at 1.2 μM onto the SAX biosensors for 120 s, and then the excess TssK was dissociated in HEPES buffer for 120 s. For the remaining kinetic assays, we used kinetic buffer (PBS [pH 7.3] plus 0.02% Tween 20, 0.1% bovine serum albumin [BSA], 0.05% sodium azide) (Forté Bio number 18-5032) with orbital shaking at 2,200 rpm. Kinetic buffer (KB) was used to dilute the lysates and the peptide to decrease nonspecific signals. The unbound Strep sites were blocked with 2 μM control lysate for 120 s and washed with KB for 120 s. The kinetic assays were performed using three steps with different times: baseline, 30 s; association, 120 s; and dissociation, 120 s. All the following assays were performed in triplicate. […] In the first assay, we added 47 μM lysate expressing the analytes TssG, TssF, and TssE to the bound TssK. In the second assay, we added 1 mM wild-type (WT) BCP to the bound TssK before adding 47 μM TssF-TssG-TssE. In the third assay, to validate the specificity of the WT BCP we added 1 mM mutant BCP that lacks the binding residues to the bound TssK before adding 47 μM TssF-TssG-TssE. Last, to redemonstrate the specificity of the BCP-WT, we added 1 mM randomized BCP that contains the binding residues but out of order to the bound TssK before adding 47 μM TssF-TssG-TssE.

[3] = biological target: Strep-tagged TssK (EAEC) (enteroaggregative Escherichia coli (EAEC) 17-2); test: BLI; as a7, but 1 mM mutated BCP added to the bound TssK before 47 μM TssFGE lysate
[4] = biological target: Strep-tagged TssK (EAEC) (enteroaggregative Escherichia coli (EAEC) 17-2); test: BLI; as a7, but 1 mM wild-type BCP added to the bound TssK before 47 μM TssFGE lysate
[5] = biological target: Strep-tagged TssK (EAEC) (enteroaggregative Escherichia coli (EAEC) 17-2); test: BLI; as a7, but 1 mM randomized BCP added to the bound TssK before 47 μM TssFGE lysate
[6] = biological target: Strep-tagged TssK (EAEC) (enteroaggregative Escherichia coli (EAEC) 17-2); test: BLI; biotinylated TssK loaded at 1.2 μM on streptavidin (SAX) biosensors, blocked with control lysate; 47 μM TssFGE lysate in kinetic buffer (PBS pH 7.3, 0.02% Tween 20, 0.1% BSA); no peptide
[7] = biological target: TssK-6×His (EAEC) (enteroaggregative Escherichia coli (EAEC) 17-2); test: native gel or EMSA; clarified BL21(DE3) lysates on a native 4 to 16% gel, immunoblot with anti-His antibodies
[8] = biological target: Strep-tagged TssK (EAEC) (enteroaggregative Escherichia coli (EAEC) 17-2); test: ITC; 25 μM TssK in the cell, 1 mM peptide in the syringe; 50 mM HEPES pH 7.0, 150 mM NaCl, 25°C; One Set of Sites model

Flag-tagged TssG (EAEC) (natural protein)
amount of TssG copurified using TssF-based pulldown [1]: 74.8%

Flag-tagged TssG with the foot 1 domain deleted (natural protein)
amount of TssG copurified using TssF-based pulldown [1]: 4.6%

Flag-tagged TssG with the foot 2 domain deleted (natural protein)
amount of TssG copurified using TssF-based pulldown [1]: 1.1%

SRPVAG-SRPVAG-SRPVAG (head to tail) [mutated BCP]
maximum binding average response of TssFGE to TssK at 150 s in presence of peptide [2]: 0.169 ± 0.016 nm

SVRMPG-SPMRVG-SMVRPG (head to tail) [randomized BCP, randomized control version (SVRMPG-SPMRVG-SMVRPG)]
maximum binding average response of TssFGE to TssK at 150 s in presence of peptide [2]: 0.160 ± 0.028 nm

TssF-TssG-TssE (EAEC) (complex)
maximum binding average response at 150 s, TssK preincubated with 1 mM mutated BCP [3]: 0.169 nm
maximum binding average response at 150 s, TssK preincubated with 1 mM wild-type BCP [4]: 0.121 nm
maximum binding average response at 150 s, TssK preincubated with 1 mM randomized BCP [5]: 0.16 nm
maximum binding average response at 150 s association [6]: 0.189 nm

TssK-6×His (EAEC) (natural protein)
stoichiometry N [7]: 3

SRPVMGSRPVMGSRPVMG (head-to-tail cyclization) [biomimetic cyclic peptide (BCP)]
Kd [8]: 60 µM
